Test results as given in publication PMC4483278.

Target: Bax (human (endogenous in U-2 OS and Sa OS)) (UniProt Q07812)
Assay: co-IP

Ku70, sequence (P12956 whole entry): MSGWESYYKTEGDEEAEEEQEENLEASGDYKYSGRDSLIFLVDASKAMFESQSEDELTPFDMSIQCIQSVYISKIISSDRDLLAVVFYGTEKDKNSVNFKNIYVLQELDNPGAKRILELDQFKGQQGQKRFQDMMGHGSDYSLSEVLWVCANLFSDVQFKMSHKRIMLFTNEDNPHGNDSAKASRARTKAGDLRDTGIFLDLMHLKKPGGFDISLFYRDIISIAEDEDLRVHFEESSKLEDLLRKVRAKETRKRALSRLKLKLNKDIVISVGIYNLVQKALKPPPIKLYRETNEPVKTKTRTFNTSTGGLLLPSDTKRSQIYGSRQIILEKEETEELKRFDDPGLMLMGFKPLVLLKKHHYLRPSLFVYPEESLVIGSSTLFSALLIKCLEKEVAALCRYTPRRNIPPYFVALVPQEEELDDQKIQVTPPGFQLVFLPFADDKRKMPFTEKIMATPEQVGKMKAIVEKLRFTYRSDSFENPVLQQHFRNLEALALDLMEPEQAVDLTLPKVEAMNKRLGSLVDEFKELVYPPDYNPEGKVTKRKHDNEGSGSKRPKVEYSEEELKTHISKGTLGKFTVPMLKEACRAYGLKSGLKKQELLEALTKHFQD
Bax (human (endogenous in U-2 OS and Sa OS)), sequence (Q07812 whole entry): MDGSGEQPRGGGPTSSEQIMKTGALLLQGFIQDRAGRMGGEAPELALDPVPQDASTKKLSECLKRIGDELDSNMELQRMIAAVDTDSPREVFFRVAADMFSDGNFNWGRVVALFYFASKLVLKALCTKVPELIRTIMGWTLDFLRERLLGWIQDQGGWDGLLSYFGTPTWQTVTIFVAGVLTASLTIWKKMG

percent of Ku70 remaining bound to Bax after sCLU depletion: < 25%
Substance: Ku70 (from UniProt P12956 1-609) (natural protein)
